{"source": "paper PMC4105751", "about": "(RNA, 2014)", "key": {"[1]": {"target": "the molecule itself", "experiment": "crystal structure"}, "[2]": {"target": "the molecule itself", "experiment": "SAXS with inline size-exclusion chromatography"}, "[3]": {"target": "the molecule itself", "experiment": "crystal structure", "remark": "listed apart in the source"}}}
{"protein": "N-terminal SPOUT domain of TrmJ of Sulfolobus acidocaldarius (SaTrmJ1-157) (domain or fragment, UniProt Q4JB16 1-157, looked up) MTIRLVIVEPEGAYNLGFIARLVKNFLIDEFYVVNPKADINEAIKFSAKGSEVIEKMMKITNNFDDAIRDVDLKIATSSIADIKGDLLRKSIRPIDLERLIKDKKVAFIFGRESVGLTREEIAKSDFLLFIPANPEYPVLNLSHAVGIVLYELWRNR", "values": [{"measurement": "stoichiometry N", "setting": "[1]", "result": 2}]}
{"protein": "C-terminal domain of TrmJ of Escherichia coli (EcTrmJ167-246) (domain or fragment, E. coli, UniProt P0AE01 167-246, looked up) GEQVEHEETPYPLVDDLERFYGHLEQTLLATGFIRENHPGQVMNKLRRLFTRARPESQELNILRGILASIEQQNKGNKAE", "values": [{"measurement": "stoichiometry N", "setting": "[2]", "result": 2}]}
{"protein": "N-terminal SPOUT domain of TrmJ of Escherichia coli (EcTrmJ1-164) (domain or fragment, E. coli, UniProt P0AE01 1-164, looked up) MLQNIRIVLVETSHTGNMGSVARAMKTMGLTNLWLVNPLVKPDSQAIALAAGASDVIGNAHIVDTLDEALAGCSLVVGTSARSRTLPWPMLDPRECGLKSVAEAANTPVALVFGRERVGLTNEELQKCHYHVAIAANPEYSSLNLAMAVQVIAYEVRMAWLATQ", "values": [{"measurement": "stoichiometry N", "setting": "[3]", "result": 2}]}
